Measurements as given in publication PMC7205207, “Modeling and mitigation of high-concentration antibody viscosity through structure-based computer-aided protein design” (PLoS ONE, 2020).

B1: R1-002 (antibody, V domains shown)
VH: EVQLLQSGGGLVQPGGSLRLSCAASGFTFSSYAMSWVRQAPGKGLEWVSYISDDGSLKYYADSVKGRFTISRDNSKNTLYLQMNSLRAEDTAVYYCARHPYWYGGQLDLWGQGTLVTVSS
VL: SYELTQPPSVSVSPGQTASITCSGDSLGSYFVHWYQQKPGQSPVLVIYDDSNRPSGIPERFSGSNSGNTATLTISGTQAMDEADYYCSAFTHNSDVFGGGTKLTVL
notes: VL of AB-001 (AB-001_LC); only the variable regions are written; source: HEK293, transient, purified from conditioned medium (protein A, TMAE, HIC)
B2: R1-006 (antibody, V domains shown)
VH: EVQLLESGGGLVQPGGSLRLSCAASGFTFSSYAMSWVRQAPGKGLEWVSYISDDGSLKYYADSVKGRFTISRDNSKNTLYLQMNSLRAEDTAVYYCARHPYWYGGRLDLWGQGTLVTVSS
VL: SYELTQPPSVSVSPGQTASITCSGDSLGSYFVHWYQQKPGQSPVLVIYDDSNRPSGIPERFSGSNSGNTATLTISGTQAMDEADYYCSAFTHNSDVFGGGTKLTVL
notes: as for B1
B3: R1-018 (antibody, V domains shown)
VH: EVQLLESGGGLVQPGGSLRLSCAASGFTFSSYAMSWVRQAPGKGLEWVSYISDDGSLKYYADSVKGRFTISRDNSKNTLYLQMNSLRAEDTAVYYCARHPYWYGGRLDLWGQGTLVTVSS
VL: SYELTQPPSVSVSPGQRASITCSGDSLGSYFVHWYQQKPGQSPVLVIYDDSNRPSGIPERFSGSNSGNTATLTISGTQAMDEADYYCSAFTHNSDVFGGGTKLTVL
notes: only the variable regions are written; source: HEK293, transient, purified from conditioned medium (protein A, TMAE, HIC)
B4: R1-007 (antibody, V domains shown)
VH: EVQLLQSGGGLVKPGGSLRLSCAASGFTFSSYAMSWVRQAPGKGLEWVSYISDDGSLKYYADSVKGRFTISRDNSKNTLYLQMNSLRAEDTAVYYCARHPYWYGGQLDLWGQGTLVTVSS
VL: SYELTQPPSVSVSPGQTASITCSGDSLGSYFVHWYQQKPGQSPVLVIYDDSNRPSGIPERFSGSNSGNTATLTISGTQAMDEADYYCSAFTHNSDVFGGGTKLTVL
notes: as for B1
B5: R1-013 (antibody, V domains shown)
VH: EVQLLQSGGGLVQPGGSLRLSCAASGFTFSSYAMSWVRQAPGKGLEWVSYISDDGSLKYYADSVKGRFTISRDNSKNTLYLQMNSLRAEDTAVYYCARHPYWYGGQLDLWGQGTLVTVSS
VL: SYELTQPPSVSVSPGQRASITCSGDSLGSYFVHWYQQKPGQSPVLVIYDDSNRPSGIPERFSGSNSGNTATLTISGTQAMDEADYYCSAFTHNSDVFGGGTKLTVL
notes: as for B3
B6: R1-015 (antibody, V domains shown)
VH: EVQLLQSGGGLVKPGGSLRLSCAASGFTFSSYAMSWVRQAPGKGLEWVSYISDDGSLKYYADSVKGRFTISRDNSKNTLYLQMNSLRAEDTAVYYCARHPYWYGGQLDLWGQGTLVTVSS
VL: SYELTQPPSVSVSPGQTASITCSGDSLGSYFVHWYQQKPGQSPVLVIYDDSNRPSGIPERFSGSNSGNTATLTISGTQAMDEADYYCSAFTHNSNVFGGGTKLTVL
notes: as for B3
B7: R1-010 (antibody, V domains shown)
VH: EVQLLESGGGLVQPGGSLRLSCAASGFTFSSYAMSWVRQAPGKGLEWVSYISDDGSLKYYADSVKGRFTISRDNSKNTLYLQMNSLRAEDTAVYYCAKHPYWYGGQLDLWGQGTLVTVSS
VL: SYELTQPPSVSVSPGQTASITCSGDSLGSYFVHWYQQKPGQSPVLVIYDDSKRPSGIPERFSGSNSGNTATLTISGTQAMDEADYYCSAFTHNSDVFGGGTKLTVL
notes: VH of AB-001 (AB-001_HC); only the variable regions are written; source: HEK293, transient, purified from conditioned medium (protein A, TMAE, HIC)
B8: R2-004 (antibody, V domains shown)
VH: EVQLLQSGGGLVKPGGSLRLSCAASGFTFSSYAMSWVRQAPGKGLEWVSYISDDGSLKYYADSVKGRFTISRDNSKNTLYLQMNSLRAEDTAVYYCARHPYWYGGQLDLWGQGTLVTVSS
VL: SYVLTQPPSVSVAPGKTARITCSGDSLGSYFVHWYQQKPGQSPVLVIHDDSKRPSGIPERFSGSNSGNTATLTISGTQAMDEADYYCSAFTHNSDVFGGGTKLTVL
notes: as the VH of m20 (R2-001_HC); as the VL of m20 (R2-001_LC) with Y49H (Kabat); only the variable regions are written; source: HEK293, transient, purified from conditioned medium (protein A, TMAE, HIC)
B9: R2-009 (antibody, V domains shown)
VH: EVQLLQSGGGLVKPGGSLRLSCAASGFTFSSYAMSWVRQAPGKGLEWVSYISDDGSLKYYADSVKGRFTISRDNSKNTLYLQMNSLRAEDTAVYYCARHPYWYGGQLDLWGQGTLVTVSS
VL: SYVLTQPPSVSVAPGKTARITCSGDSLGSYFVHWYQQKPGQSPVLVIYDDSKRPSGIPERFSGSNSKNTATLTISGTQAMDEADYYCSAFTHNSDVFGGGTKLTVL
notes: as the VH of m20 (R2-001_HC); as the VL of m20 (R2-001_LC) with G68K (Kabat); only the variable regions are written; source: HEK293, transient, purified from conditioned medium (protein A, TMAE, HIC)
B10: R2-008 (antibody, V domains shown)
VH: EVQLLQSGGGLVKPGGSLRLSCAASGFTFSSYAMSWVRQAPGKGLEWVSYISDDGSLKYYADSVKGRFTISRDNSKNTLYLQMNSLRAEDTAVYYCARHPYWYGGQLDLWGQGTLVTVSS
VL: SYVLTQPPSVSVAPGKTARITCSGDSLGSYFVHWYQQKPGQSPVLVIYDDSKRPSGIPERFSGSNKGNTATLTISGTQAMDEADYYCSAFTHNSDVFGGGTKLTVL
notes: as the VH of m20 (R2-001_HC); as the VL of m20 (R2-001_LC) with S67K (Kabat); only the variable regions are written; source: HEK293, transient, purified from conditioned medium (protein A, TMAE, HIC)
B11: R1-003 (antibody, V domains shown)
VH: EVQLLESGGGLVKPGGSLRLSCAASGFTFSSYAMSWVRQAPGKGLEWVSYISDDGSLKYYADSVKGRFTISRDNSKNTLYLQMNSLRAEDTAVYYCARHPYWYGGQLDLWGQGTLVTVSS
VL: SYELTQPPSVSVSPGQTASITCSGDSLGSYFVHWYQQKPGQSPVLVIYDDSNRPSGIPERFSGSNSGNTATLTISGTQAMDEADYYCSAFTHNSDVFGGGTKLTVL
notes: as for B1
B12: R1-005 (antibody, V domains shown)
VH: EVQLLESGGGLVQPGGSLRLSCAASGFTFSSYAMSWVRQAPGKGLEWVSYISNDGSLKYYADSVKGRFTISRDNSKNTLYLQMNSLRAEDTAVYYCARHPYWYGGQLDLWGQGTLVTVSS
VL: SYELTQPPSVSVSPGQTASITCSGDSLGSYFVHWYQQKPGQSPVLVIYDDSNRPSGIPERFSGSNSGNTATLTISGTQAMDEADYYCSAFTHNSDVFGGGTKLTVL
notes: as for B1
B13: R1-012 (antibody, V domains shown)
VH: EVQLLQSGGGLVKPGGSLRLSCAASGFTFSSYAMSWVRQAPGKGLEWVSYISDDGSLKYYADSVKGRFTISRDNSKNTLYLQMNSLRAEDTAVYYCARHPYWYGGQLDLWGQGTLVTVSS
VL: SYVLTQPPSVSVSPGQTASITCSGDSLGSYFVHWYQQKPGQSPVLVIYDDSNRPSGIPERFSGSNSGNTATLTISGTQAMDEADYYCSAFTHNSDVFGGGTKLTVL
notes: Kabat position; only the variable regions are written; source: HEK293, transient, purified from conditioned medium (protein A, TMAE, HIC)
B14: R1-008 (antibody, V domains shown)
VH: EVQLLESGGGLVQPGGSLRLSCAASGFTFSSYAMSWVRQAPGKGLEWVSYISDDGSLKYYADSVKGRFTISRDNSKNTLYLQMNSLRAEDTAVYYCAKHPYWYGGQLDLWGQGTLVTVSS
VL: SYVLTQPPSVSVSPGQTASITCSGDSLGSYFVHWYQQKPGQSPVLVIYDDSNRPSGIPERFSGSNSGNTATLTISGTQAMDEADYYCSAFTHNSDVFGGGTKLTVL
notes: VH of AB-001 (AB-001_HC); Kabat position; only the variable regions are written; source: HEK293, transient, purified from conditioned medium (protein A, TMAE, HIC)
B15: R1-004 (antibody, V domains shown)
VH: EVQLLESGGGLVQPGGSLRLSCRASGFTFSSYAMSWVRQAPGKGLEWVSYISDDGSLKYYADSVKGRFTISRDNSKNTLYLQMNSLRAEDTAVYYCARHPYWYGGQLDLWGQGTLVTVSS
VL: SYELTQPPSVSVSPGQTASITCSGDSLGSYFVHWYQQKPGQSPVLVIYDDSNRPSGIPERFSGSNSGNTATLTISGTQAMDEADYYCSAFTHNSDVFGGGTKLTVL
notes: as for B1
B16: R2-005 (antibody, V domains shown)
VH: EVQLLQSGGGLVKPGGSLRLSCAASGFTFSSYAMSWVRQAPGKGLEWVSYISDDGSLKYYADSVKGRFTISRDNSKNTLYLQMNSLRAEDTAVYYCARHPYWYGGQLDLWGQGTLVTVSS
VL: SYVLTQPPSVSVAPGKTARITCSGDSLGSYFVHWYQQKPGQSPVLVIRDDSKRPSGIPERFSGSNSGNTATLTISGTQAMDEADYYCSAFTHNSDVFGGGTKLTVL
notes: as the VH of m20 (R2-001_HC); as the VL of m20 (R2-001_LC) with Y49R (Kabat); only the variable regions are written; source: HEK293, transient, purified from conditioned medium (protein A, TMAE, HIC)
B17: R2-007 (antibody, V domains shown)
VH: EVQLLQSGGGLVKPGGSLRLSCAASGFTFSSYAMSWVRQAPGKGLEWVSYISDDGSLKYYADSVKGRFTISRDNSKNTLYLQMNSLRAEDTAVYYCARHPYWYGGQLDLWGQGTLVTVSS
VL: SYVLTQPPSVSVAPGKTARITCSGDSLGSYFVHWYQQKPGQSPVLVIYDDSKRPSGIPERFSGKNSGNTATLTISGTQAMDEADYYCSAFTHNSDVFGGGTKLTVL
notes: as the VH of m20 (R2-001_HC); as the VL of m20 (R2-001_LC) with S65K (Kabat); only the variable regions are written; source: HEK293, transient, purified from conditioned medium (protein A, TMAE, HIC)
B18: R1-009 (antibody, V domains shown)
VH: EVQLLESGGGLVQPGGSLRLSCAASGFTFSSYAMSWVRQAPGKGLEWVSYISDDGSLKYYADSVKGRFTISRDNSKNTLYLQMNSLRAEDTAVYYCAKHPYWYGGQLDLWGQGTLVTVSS
VL: SYELTQPPSVSVSPGQRASITCSGDSLGSYFVHWYQQKPGQSPVLVIYDDSNRPSGIPERFSGSNSGNTATLTISGTQAMDEADYYCSAFTHNSDVFGGGTKLTVL
notes: as for B7
B19: R1-014 (antibody, V domains shown)
VH: EVQLLQSGGGLVKPGGSLRLSCAASGFTFSSYAMSWVRQAPGKGLEWVSYISDDGSLKYYADSVKGRFTISRDNSKNTLYLQMNSLRAEDTAVYYCARHPYWYGGQLDLWGQGTLVTVSS
VL: SYELTQPPSVSVSPGQRASITCSGDSLGSYFVHWYQQKPGQSPVLVIYDDSNRPSGIPERFSGSNSGNTATLTISGTQAMDEADYYCSAFTHNSDVFGGGTKLTVL
notes: as for B3
B20: R1-011 (antibody, V domains shown)
VH: EVQLLESGGGLVQPGGSLRLSCAASGFTFSSYAMSWVRQAPGKGLEWVSYISDDGSLKYYADSVKGRFTISRDNSKNTLYLQMNSLRAEDTAVYYCAKHPYWYGGQLDLWGQGTLVTVSS
VL: SYELTQPPSVSVSPGQTASITCSGDSLGSYFVHWYQQKPGQSPVLVIYDDSNRPSGIPERFSGSNSGNTATLTISGTQAMDEADYYCSAFTHNSNVFGGGTKLTVL
notes: as for B7
B21: R1-017 (antibody, V domains shown)
VH: EVQLLESGGGLVKPGGSLRLSCAASGFTFSSYAMSWVRQAPGKGLEWVSYISDDGSLKYYADSVKGRFTISRDNSKNTLYLQMNSLRAEDTAVYYCARHPYWYGGQLDLWGQGTLVTVSS
VL: SYELTQPPSVSVSPGQRASITCSGDSLGSYFVHWYQQKPGQSPVLVIYDDSNRPSGIPERFSGSNSGNTATLTISGTQAMDEADYYCSAFTHNSDVFGGGTKLTVL
notes: as for B3

Each binder was assayed against T1, human PDGF-BB (platelet derived growth factor B homodimer) (human, UniProt P01127) (assay: SPR; Biacore T200, off-rate screen; antibody captured (~70 to 100 RU) by anti-human IgG amine-coupled to a CM5 chip; human PDGF-BB injected at a single 2.5 nM for 170 s, dissociation 300 s; HBS-EP+ N (10 mM HEPES, 500 mM NaCl, 3 mM EDTA, 0.05% Tween20, pH 7.4); 25 C). Conditions: both partners purified.
T1 construct: Platelet derived growth factor B, human, homodimer, bought from PeproTech; the printed catalogue number may stand for 100-14B; source: bought: PeproTech, Catalog 100-148
T1 sequence (P01127 82-190): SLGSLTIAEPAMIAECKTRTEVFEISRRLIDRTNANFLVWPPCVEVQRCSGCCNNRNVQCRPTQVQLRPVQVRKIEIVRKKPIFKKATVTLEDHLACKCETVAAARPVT

Point of comparison: B6, koff 0.000752 s⁻¹. Against it:
- B1 — 2-fold lower, 0.00038 s⁻¹
- B2 — 2.4-fold lower, 0.000314 s⁻¹
- B3 — 1.8-fold lower, 0.000419 s⁻¹
- B4 — 2.7-fold lower, 0.000282 s⁻¹
- B5 — 2.5-fold lower, 0.000297 s⁻¹
- B7 — 2-fold lower, 0.000372 s⁻¹
- B8 — 1.7-fold lower, 0.000439 s⁻¹
- B9 — 2.8-fold lower, 0.000265 s⁻¹
- B10 — 1.9-fold lower, 0.000396 s⁻¹
- B11 — 1.7-fold lower, 0.000443 s⁻¹
- B12 — 2-fold lower, 0.000381 s⁻¹
- B13 — 2.5-fold lower, 0.000304 s⁻¹
- B14 — within 1.5-fold, 0.000533 s⁻¹
- B15 — 2.9-fold lower, 0.000258 s⁻¹
- B16 — 2.2-fold lower, 0.000348 s⁻¹
- B17 — 1.9-fold lower, 0.000401 s⁻¹
- B18 — 1.9-fold lower, 0.000393 s⁻¹
- B19 — 1.9-fold lower, 0.000405 s⁻¹
- B20 — within 1.5-fold, 0.00086 s⁻¹
- B21 — 1.6-fold lower, 0.000471 s⁻¹
